Values quoted from earlier work as cited in article doi:10.1101/2021.06.28.450170.

Experiments:
[1] = biological target: Cys797 (UniProt position 797, LMPFGCLLDYV); test: chemical modification
[2] = biological target: Cys442 (UniProt position 442, FMEHGCLSDYL)
[3] = biological target: Cys481 (UniProt position 481, YMANGCLLNYL)

In the case of “Epidermal growth factor receptor (EGFR) kinase (Homo sapiens)”, the pKa [1] is given as 5.5.
In the case of “Interleukin-2-inducible T-cell kinase (ITK) (Homo sapiens)”, the pKa [2] is listed as 8.5.
For “Bruton's tyrosine kinase (BTK) (Homo sapiens)”, the pKa [3] is given as 7.7.
